# Measured values as given in PMC10656745 (ACS synthetic biology, 2022).
# Biological target: the molecule itself
# Experiment: native gel or EMSA
protein,measurement,value
"wild-type GstA (glutathione S-transferase, PP_1162) of Pseudomonas putida KT2440 (enzyme, UniProt Q88NP5 1-209, looked up) MSNPIKLYNFPKSGHAHRIELMLSLLNLPTELVFVDLAKGAHKQPDFLALNPFGQVPVIDDNGTVIADSNAILVYLAKKYDNGTWLPEEPAAAARVQRWLSVAAGPLAFGPAAARLVTVFGASFNTDEVISRAHTLLKVIDAELANTPFLTGSTPTIADIANYSYIAHAPEGNVSLEPYANVRNWLARIEALPRFVPMPRTVIGLQTHA",stoichiometry N,2
